The target in assay [1] is all-cysteine-to-serine (7CS) mutant of the IκBα ankyrin domain, IκB(67–302)7CS (human) (UniProt P25963). Kind of assay: ITC; TCL1A (470 µM) injected into IκB_ank^7CS (45 µM) in the cell; 20°C; 10 mM Tris pH 7.4, 300 mM NaCl, 1 mM β-mercapto ethanol.
The target of assay [2] is T1, T cell leukaemia/lymphoma 1A (TCL1A), purified recombinant human protein (human, UniProt P56279 1-114).
T1 construct: TCL1A, human; 7 N-terminal residues are not seen in the crystal structure 1JSG
Kind of assay: ITC; AKT_PH (490 µM) injected into TCL1A (40 µM) or into equimolar TCL1A and IκB_ank^7CS in the cell; 20°C; 20 mM sodium phosphate pH 7.1, 300 mM NaCl, 2 mM EGTA, 1 mM β-mercapto ethanol. To be noted: both partners purified. (ITC needs no label: the signal is the heat of the interaction.)

In assay [3] the target is 1:1 TCL1A:IκB_ank^7CS complex (human) (UniProt P56279). Described as above.

What is called stoichiometry N is a count of units in the complex or per binding partner. What is called Kd is the concentration at which binding is half-saturated. Low readings indicate a tighter complex, high ones a looser complex.

T1 sequence (P56279 whole entry): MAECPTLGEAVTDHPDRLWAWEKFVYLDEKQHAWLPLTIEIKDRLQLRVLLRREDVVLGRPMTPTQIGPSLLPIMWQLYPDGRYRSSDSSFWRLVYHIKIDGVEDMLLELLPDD

Turning to “T cell leukaemia/lymphoma 1A (TCL1A), purified recombinant human protein (from UniProt P56279 1-114) (natural protein)”, in assay [1], the dH was -53.2 kJ/mol and the stoichiometry N was determined as 0.9.

B1: AKTβ PH domain, human AKTβ PH(1–118) (domain or fragment, UniProt P31751 1-118, looked up)
chain: MNEVSVIKEGWLHKRGEYIKTWRPRYFLLKSDGSFIGYKERPEAPDQTLPPLNNFSVAECQLMKTERPRPNTFVIRCLQWTTVIERTFHVDSPDEREEWMRAIQMVANSLKQRAPGED
With B1, in assay [2], the dH was -60.9 ± 2.5 kJ/mol and the “stoichiometry N” value was 0.7 ± 0.3. In assay [3], this molecule displayed a Kd of 5.1 µM, a dH of -39 kJ/mol and a stoichiometry N of 0.7.

For the origin of these results see publication PMC2718698, “The TCL1A Oncoprotein Interacts Directly with the NF-κB Inhibitor IκB” (PLoS ONE, 2009).
